Results on one molecule are retold here after patent publication US20260022175A1 (Chugai, published 2026).

Experiment [1] has as its target T1, human FcγRIa extracellular domain with C-terminal His-tag (human, UniProt P12314 16-292).
T1 construct: extracellular domain; also called hFcγR Ia; hFcγRIa
The experiment is described as follows: SPR Biacore T200, captured Ab, pH 7.4.

The target in experiment [2] is T2, human FcγRIIa R allotype extracellular domain with C-terminal His-tag (human, UniProt P12318 34-217).
T2 construct: extracellular domain; also called hFcγR IIa R
T2 sequence (looked up): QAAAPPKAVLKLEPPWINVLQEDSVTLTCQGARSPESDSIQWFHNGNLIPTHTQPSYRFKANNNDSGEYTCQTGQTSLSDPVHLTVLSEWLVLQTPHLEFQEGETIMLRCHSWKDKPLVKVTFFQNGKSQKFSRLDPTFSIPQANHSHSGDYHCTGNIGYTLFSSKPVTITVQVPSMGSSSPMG
The experiment is described as follows: SPR Biacore T200, captured Ab, pH 7.4.

Experiment [3] has as its target T3, human FcγRIIa H allotype extracellular domain with C-terminal His-tag (human, UniProt P12318 34-217).
T3 construct: extracellular domain; also called hFcγR IIa H
T3 sequence (looked up): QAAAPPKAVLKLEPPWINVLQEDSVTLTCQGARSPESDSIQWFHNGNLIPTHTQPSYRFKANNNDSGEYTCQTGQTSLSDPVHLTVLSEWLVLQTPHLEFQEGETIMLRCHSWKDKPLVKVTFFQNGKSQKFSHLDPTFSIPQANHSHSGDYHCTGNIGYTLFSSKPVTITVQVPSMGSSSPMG
The experiment can be described thus: SPR Biacore T200, captured Ab, pH 7.4. (SPR reads the build-up and loss of mass on a sensor chip optically.)

For experiment [4], the target named is T4, human FcγRIIIa F allotype extracellular domain with C-terminal His-tag (human, UniProt P08637 17-208).
T4 construct: extracellular domain; also called hFcγR IIIa F
T4 sequence (P08637 17-208): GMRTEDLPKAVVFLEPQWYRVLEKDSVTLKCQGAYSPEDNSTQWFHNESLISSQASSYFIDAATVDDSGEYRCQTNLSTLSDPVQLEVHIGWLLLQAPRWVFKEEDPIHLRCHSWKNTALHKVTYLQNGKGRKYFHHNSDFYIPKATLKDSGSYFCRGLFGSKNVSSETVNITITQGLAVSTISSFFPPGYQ
The experiment can be described thus: SPR Biacore T200, captured Ab, pH 7.4.

The target of experiment [5] is T5, human FcγRIIIa V allotype extracellular domain with C-terminal His-tag (human, UniProt P08637 17-208).
T5 construct: extracellular domain; also called hFcγR IIIa V
T5 sequence (P08637 17-208 F176V): as the sequence (P08637 17-208) above, with F160V counted along it
The experiment can be described thus: SPR Biacore T200, captured Ab, pH 7.4.

In experiment [6] the target is T6, human FcγRIIb extracellular domain with C-terminal His-tag (human, UniProt P31994 43-217).
T6 construct: extracellular domain; also called hFcγR IIb
T6 sequence (looked up): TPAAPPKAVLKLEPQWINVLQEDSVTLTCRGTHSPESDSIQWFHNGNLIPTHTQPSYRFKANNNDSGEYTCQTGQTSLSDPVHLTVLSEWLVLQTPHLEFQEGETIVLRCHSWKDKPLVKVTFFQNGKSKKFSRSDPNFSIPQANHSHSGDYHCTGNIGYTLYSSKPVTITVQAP
The experiment can be described thus: SPR; FcγRIIb bound amount per unit captured Ab.

In experiment [7] the target is T7, human FcRn (human, UniProt P55899 24-290; P61769 21-119).
T7 construct: Prepared by the method of WO 2010/107110; also called hFcRn
T7 sequence (P55899 24-290 limits assumed, chain 1 of 2): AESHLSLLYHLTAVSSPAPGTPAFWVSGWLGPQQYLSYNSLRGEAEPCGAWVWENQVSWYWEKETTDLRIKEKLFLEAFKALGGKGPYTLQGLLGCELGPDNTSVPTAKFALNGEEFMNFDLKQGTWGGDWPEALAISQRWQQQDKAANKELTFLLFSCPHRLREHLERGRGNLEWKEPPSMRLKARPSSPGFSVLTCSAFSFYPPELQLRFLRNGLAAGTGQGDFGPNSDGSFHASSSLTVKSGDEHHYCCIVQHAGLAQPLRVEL
T7 sequence (P61769 21-119 limits assumed, chain 2 of 2): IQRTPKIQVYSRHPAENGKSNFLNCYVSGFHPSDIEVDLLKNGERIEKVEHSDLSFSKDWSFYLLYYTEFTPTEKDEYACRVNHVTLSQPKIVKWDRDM
The experiment is described as follows: SPR Biacore T200, captured Ab, pH 6.0, steady state.

For experiment [8], the target named is T7, human FcRn. The experiment can be described thus: SPR; KD of 04H1389-G1m/04L1305-k0MT divided by KD of variant.
Experiment [9] addresses T1, human FcγRIa extracellular domain with …. The description is as above.
Experiment [10] concerns the target T2, human FcγRIIa R allotype extracellular …. The experiment is described as above.
The target of experiment [11] is T3, human FcγRIIa H allotype extracellular …. The description is as above.
Experiment [12] addresses T4, human FcγRIIIa F allotype extracellular …. Described as above.
The target of experiment [13] is T5, human FcγRIIIa V allotype extracellular …. Described as above.
Experiment [14] concerns the target T6, human FcγRIIb extracellular domain with …. The experiment is described as follows: SPR; binding amount divided by that of 04H1389-G1m/04L1305-k0MT.

T1 sequence (P12314 16-292): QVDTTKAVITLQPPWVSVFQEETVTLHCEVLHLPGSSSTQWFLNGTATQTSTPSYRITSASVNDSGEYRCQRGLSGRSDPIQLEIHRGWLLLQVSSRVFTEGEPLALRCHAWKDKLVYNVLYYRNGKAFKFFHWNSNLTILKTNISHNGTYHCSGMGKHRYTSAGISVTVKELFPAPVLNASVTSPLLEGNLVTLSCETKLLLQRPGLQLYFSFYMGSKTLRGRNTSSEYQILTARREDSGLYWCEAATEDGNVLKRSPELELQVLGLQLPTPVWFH

B1: 04H1389-Km473/04L1305-k0MT//04H1389-Hm482/04L1305-k0MT (antibody)
heavy 1: EVQLVESGGGLVKPGGSLRLSCAASGFTFSSKTMNWVRQAPGKGLEWVSSISTQSHYIYYAESVKGRFTISRDNAKNSLYLQMNSLRAEDTAVYYCARYGKREDMLWVFDYWGQGTLVTVSSASTKGPSVFPLAPSSKSTSGGTAALGCLVKDYFPEPVTVSWNSGALTSGVHTFPAVLQSSGLYSLSSVVTVPSSSLGTQTYICNVNHKPSNTKVDKRVEPKSCDKTHTCPPCPAPEFQWGPMVFLFPPKPKDVLMISRTPEVTCVVVDVSDEEPEVKFNWYVDGVEVHNAKTKPREEQYNATYRVVSVLPVLHQDWLNGKEYKCKVSNDALPAPIEKTISKAKGQPREPQVCTLPPSREEMTKNQVSLWCLVKGFYPSDIAVEWESNGQPENNYKTTPPVLDSDGSFFLYSKLTVDKSRWQQGNVFSCSVMHEALHAHTTRKELSLSP
heavy 2: EVQLVESGGGLVKPGGSLRLSCAASGFTFSSKTMNWVRQAPGKGLEWVSSISTQSHYIYYAESVKGRFTISRDNAKNSLYLQMNSLRAEDTAVYYCARYGKREDMLWVFDYWGQGTLVTVSSASTKGPSVFPLAPSSKSTSGGTAALGCLVKDYFPEPVTVSWNSGALTSGVHTFPAVLQSSGLYSLSSVVTVPSSSLGTQTYICNVNHKPSNTKVDKRVEPKSCDKTHTCPPCPAPELLAGPSVFLFPPKPKDVLMISRTPEVTCVVVDVSHEEPEVKFNWYVDGVEVHNAKTKPREEQYNATYRVVSVLPVLHQDWLNGKEYKCKVSNDALPKPDEETISKAKGQPREPQVYTLPPSRCEMTKNQVSLSCAVKGFYPSDIAVEWESNGQPENNYKTTPPVLDSDGSFFLVSKLTVDKSRWQQGNVFSCSVMHEALHAHTTRKELSLSP
light: DIVMTQSPLSLPVTPGEPASISCDGPSTGVGDYNYVHWYQQKPGQAPRLLIYFTSKKPSGVPDRFSGSGSGTDFTLKISRVEAEDVGVYYCQTYAAPLGPMFGQGTKLEIKRTVAAPSVFIFPPSDEQLKSGTASVVCLLNNFYPREAKVQWKVDNALQSGNSQESVTEQDSKDSTYSLSSTLTLSKADYEKHKVYACEVTHQGLSSPVTKSFNRGEC
notes: Heterodimerized antibody; also called SW1389-ART6+ACT1
In general, Kd refers to the free concentration of one partner at which half of the binding sites on the other are occupied at equilibrium, for simple one-to-one binding. A high value points to weaker binding. On to B1, for which the Kd in experiment [1] was found to be 0.061 nM; in [2], 86 nM; in experiment [3], 35 nM; in experiment [4], 2.7 nM; in experiment [5] it was 0.95 nM; with human FcRn [7] it was 370 nM. Moreover, the Binding amount in [6] is 0.034. The “Relative value to KD between G1m and hFcRn” value with human FcRn [8] was found to be 2.7. In addition, the “Relative value to KD between G1m and hFcγRs” value in experiment [9] was found to be 1.1; in experiment [10] it was 18.5; in experiment [11] it was 30.8; in experiment [12] it was 258; in experiment [13], 930. Also, the Relative binding amount in experiment [14] came out at 3.
